Test results as given in publication PMC9482650, “Quantitative fragmentomics allow affinity mapping of interactomes” (Nature Communications, 2022).

B1: UBA6 (protein, UniProt A0AVT1 1-1052, looked up)
Ubiquitin-like …: MEGSEPVAAHQGEEASCSSWGTGSTNKNLPIMSTASVEIDDALYSRQRYVLGDTAMQKMAKSHVFLSGMGGLGLEIAKNLVLAGIKAVTIHDTEKCQAWDLGTNFFLSEDDVVNKRNRAEAVLKHIAELNPYVHVTSSSVPFNETTDLSFLDKYQCVVLTEMKLPLQKKINDFCRSQCPPIKFISADVHGIWSRLFCDFGDEFEVLDTTGEEPKEIFISNITQANPGIVTCLENHPHKLETGQFLTFREINGMTGLNGSIQQITVISPFSFSIGDTTELEPYLHGGIAVQVKTPKTVFFESLERQLKHPKCLIVDFSNPEAPLEIHTAMLALDQFQEKYSRKPNVGCQQDSEELLKLATSISETLEEKPDVNADIVHWLSWTAQGFLSPLAAAVGGVASQEVLKAVTGKFSPLCQWLYLEAADIVESLGKPECEEFLPRGDRYDALRACIGDTLCQKLQNLNIFLVGCGAIGCEMLKNFALLGVGTSKEKGMITVTDPDLIEKSNLNRQFLFRPHHIQKPKSYTAADATLKINSQIKIDAHLNKVCPTTETIYNDEFYTKQDVIITALDNVEARRYVDSRCLANLRPLLDSGTMGTKGHTEVIVPHLTESYNSHRDPPEEEIPFCTLKSFPAAIEHTIQWARDKFESSFSHKPSLFNKFWQTYSSAEEVLQKIQSGHSLEGCFQVIKLLSRRPRNWSQCVELARLKFEKYFNHKALQLLHCFPLDIRLKDGSLFWQSPKRPPSPIKFDLNEPLHLSFLQNAAKLYATVYCIPFAEEDLSADALLNILSEVKIQEFKPSNKVVQTDETARKPDHVPISSEDERNAIFQLEKAILSNEATKSDLQMAVLSFEKDDDHNGHIDFITAASNLRAKMYSIEPADRFKTKRIAGKIIPAIATTTATVSGLVALEMIKVTGGYPFEAYKNCFLNLAIPIVVFTETTEVRKTKIRNGISFTIWDRWTVHGKEDFTLLDFINAVKEKYGIEPTMVVQGVKMLYVPVMPGHAKRLKLTMHKLVKPTTEKKYVDLTVSFAPDIDGDEDLPGPPVRYYFSHDTD
B2: ZW10 (protein, UniProt O43264 2-779, looked up)
Centromere/kinetochore …: ASFVTEVLAHSGRLEKEDLGTRISRLTRRVEEIKGEVCNMISKKYSEFLPSMQSAQGLITQVDKLSEDIDLLKSRIESEVRRDLHVSTGEFTDLKQQLERDSVVLSLLKQLQEFSTAIEEYNCALTEKKYVTGAQRLEEAQKCLKLLKSRKCFDLKILKSLSMELTIQKQNILYHLGEEWQKLIVWKFPPSKDTSSLESYLQTELHLYTEQSHKEEKTPMPPISSVLLAFSVLGELHSKLKSFGQMLLKYILRPLASCPSLHAVIESQPNIVIIRFESIMTNLEYPSPSEVFTKIRLVLEVLQKQLLDLPLDTDLENEKTSTVPLAEMLGDMIWEDLSECLIKNCLVYSIPTNSSKLQQYEEIIQSTEEFENALKEMRFLKGDTTDLLKYARNINSHFANKKCQDVIVAARNLMTSEIHNTVKIIPDSKINVPELPTPDEDNKLEVQKVSNTQYHEVMNLEPENTLDQHSFSLPTCRISESVKKLMELAYQTLLEATTSSDQCAVQLFYSVRNIFHLFHDVVPTYHKENLQKLPQLAAIHHNNCMYIAHHLLTLGHQFRLRLAPILCDGTATFVDLVPGFRRLGTECFLAQMRAQKGELLERLSSARNFSNMDDEENYSAASKAVRQVLHQLKRLGIVWQDVLPVNIYCKAMGTLLNTAISEVIGKITALEDISTEDGDRLYSLCKTVMDEGPQVFAPLSEESKNKKYQEEVPVYVPKWMPFKELMMMLQASLQEIGDRWADGKGPLAAAFSSSEVKALIRALFQNTERRAAALAKIK

System: HEK293T cells
Test: Label-free MS proteome of stable cell lines expressing HPV16 E6 or E6ΔPBM
Assay type: cell-based, human
Settings: protein level; for Difference log2 E6/Ctrl / Ratio E6/Ctrl: E6 cell line vs control; for Difference log2 dPBM/E6 / Ratio dPBM/E6: dPBM cell line vs E6 cell line; for Difference log2 dPBM/Ctrl / Ratio dPBM/Ctrl: dPBM cell line vs control
Method: HEK293T and HeLa cells were authenticated and found 100% identity to ATCC cat. CRL-3216 and ATCC cat. CCL-2, respectively. Jurkat and HaCat cell lines were not authenticated (original source: ECACC and Deutsches Krebsforschungszentrum DKFZ, respectively). HeLa cells were grown in DMEM (1 g/L glucose, Gibco) medium completed with 5% FCS and 40 μg/mL gentamicin, diluted every 3rd/4th day 1/10. HaCat cells were grown in DMEM (1 g/L glucose, Gibco) medium completed with 10% FCS and 40 μg/mL gentamicin, diluted every 3rd/4th day 1/4. Jurkat cells were grown in RPMI (Gibco) medium completed with 10% FCS and 40 μg/mL gentamicin, diluted every 3rd/4th day 1/12. All cells were kept at 37 °C and 5% CO2. For proteomics analyses cells were seeded on T-175 flasks. After they reached confluency, adherent cells were washed with PBS once and collected by scraping with ice-cold lysis buffer (Hepes-KOH pH 7.5 50 mM, NaCl 150 mM, Triton X-100 1%, complete EDTA-free protease inhibitor cocktail 1×, EDTA 2 mM, TCEP 5 mM, glycerol 10%). Jurkat cells were collected by 1000 g × centrifugation, washed once with PBS, then collected by 1000 g × 5 min centrifugation again and lysed in ice-cold lysis buffer. Lysates were sonicated 4 × 20 s with 1 s long pulses on ice, then incubated rotating at 4 °C for 30 min. Lysates were centrifuged at 12,000 rpm 4 °C for 20 min and supernatant was kept for further analysis. Concentration determination was carried out by standard Bradford method (Bio-Rad Protein Assay Dye Reagent #5000006) using BSA (MP BIomedicals #160069) as control on a Bio-Rad SmartSpec 3000 spectrophotometer instrument.
The samples were precipitated with TCA 20% overnight at 4 °C and centrifuged at 14,000 rpm for 10 min at 4 °C. The protein pellets were washed twice with 1 mL cold acetone and air dried. The protein extracts were solubilized in urea 8 M, reduced with 5 mM TCEP for 30 min, and alkylated with 10 mM iodoacetamide for 30 min in the dark. Double digestion was performed at 37 °C with 500 ng endoproteinase Lys-C for 4 h, followed by fourfold dilution and an overnight digestion with 500 ng trypsin. Peptide mixtures were then desalted on C18 spin-column and dried on Speed-Vacuum.
Samples were analyzed using an Ultimate 3000 nano-RSLC (Thermo Scientific, San Jose California) coupled in line with a LTQ-Orbitrap ELITE mass spectrometer via a nano-electrospray ionization source (Thermo Scientific, San Jose California). Peptide mixtures were injected in 0.1% TFA on a C18 Acclaim PepMap100 trap-column (75 µm ID × 2 cm, 3 µm, 100 Å, Thermo Fisher Scientific) for 3 min at 5 µL/min with 2% ACN, 0.1% FA in H2O and then separated on a C18 Accucore nano-column (75 µm ID × 50 cm, 2.6 µm, 150 Å, Thermo Fisher Scientific) at 220 nl/min and 38 °C with a 90 min linear gradient from 5% to 30% buffer B (A: 0.1% FA in H2O/B: 99% ACN, 0.1% FA in H2O), regeneration at 5% B. The mass spectrometer was operated in positive ionization mode, in data-dependent mode with survey scans from m/z 350–1500 acquired in the Orbitrap at a resolution of 120,000 at m/z 400. The 20 most intense peaks from survey scans were selected for further fragmentation in the Linear Ion Trap with an isolation window of 2.0 Da and were fragmented by CID with normalized collision energy of 35%. (TOP20CID method) Unassigned and single charged states were excluded from fragmentation. The Ion Target Value for the survey scans (in the Orbitrap) and the MS2 mode (in the Linear Ion Trap) were set to 1E6 and 5E3 respectively and the maximum injection time was set to 100 ms for both scan modes. Dynamic exclusion was set to 20 s after one repeat count with mass width at ±10 ppm.
Proteins were identified by database searching using SequestHT (Thermo Fisher Scientific) with Proteome Discoverer 2.4 software (PD2.4, Thermo Fisher Scientific) on human FASTA database downloaded from SwissProt (reviewed, release 2020_11_27, 20304 entries, https://www.uniprot.org/). […]

| Molecule | Difference log2 E6/Ctrl | Ratio E6/Ctrl | Difference log2 dPBM/E6 | Ratio dPBM/E6 | Difference log2 dPBM/Ctrl | Ratio dPBM/Ctrl |
| --- | --- | --- | --- | --- | --- | --- |
| B1 | -0.8956 | 0.5375 | 0.6111 | 1.527 | -0.2845 | 0.821 |
| B2 | 1.251 | 2.38 | -3.211 | 0.108 | -1.96 | 0.2569 |
